From patent US20170189524A1 (IMMUNOQURE, published 2017)
Changes are numbered by the printed parent chain.

T1: g1 IL-20 (fusion protein of human IL-20 with Gaussia luciferase at the IL-20 N-terminus) (human, UniProt Q9NYY1 25-176)
T1 construct: also called IL-20-Gaussia luciferase fusion protein; GLuc-IL-20; not shown: Gaussia luciferase (pGaussia1 vector)
T1 sequence (looked up): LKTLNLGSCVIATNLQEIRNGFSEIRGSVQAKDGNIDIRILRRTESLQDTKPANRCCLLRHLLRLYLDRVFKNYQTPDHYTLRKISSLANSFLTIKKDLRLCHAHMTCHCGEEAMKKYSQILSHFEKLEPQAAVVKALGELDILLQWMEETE

T2: g2 IL-20 (fusion protein of human IL-20 fused C-terminally to Gaussia luciferase) (human, UniProt Q9NYY1 25-176)
T2 construct: order of the parts inferred from 'fused; C-terminally (g2 IL-20) to Gaussia luciferase'; the wording is ambiguous; also called GLuc-IL-20; not shown: Gaussia luciferase
T2 sequence (looked up): T1 sequence (looked up)

T3: peptide 20 of human IL-20, 101-PDHYTLRKISSLANSFLT-118 (human)
T3 construct: spotted on a glass microarray through a hydrophilic linker; also called human IL-20 101-118-peptide
T3 peptide: PDHYTLRKISSLANSFLT

T4: corresponding 18mer peptide derived from mouse IL-20 (differs from the human IL-20 101-118-peptide at Y104H … (mouse))
T4 construct: also called corresponding peptide derived from mouse IL-20
T4 peptide: PDHHTLRKISSLANSFLI

T5: peptide 19 of human IL-20, NYQTPDHYTLRKISSLAN (human)
T5 construct: spotted on a glass microarray through a hydrophilic linker
T5 peptide: NYQTPDHYTLRKISSLAN

T6: Type I IL-20 receptor (IL-20RA/IL-20RB) on transfected HEK 293T MSR cells (human, UniProt Q9UHF4 30-553; Q6UXL0 30-311)
T6 construct: whole, on cells; also called IL-20 receptor Type I; IL20RA-Myc-DDK and IL20RB-Myc-DDK; not shown: Myc-DDK tag
T6 sequence (looked up) 1: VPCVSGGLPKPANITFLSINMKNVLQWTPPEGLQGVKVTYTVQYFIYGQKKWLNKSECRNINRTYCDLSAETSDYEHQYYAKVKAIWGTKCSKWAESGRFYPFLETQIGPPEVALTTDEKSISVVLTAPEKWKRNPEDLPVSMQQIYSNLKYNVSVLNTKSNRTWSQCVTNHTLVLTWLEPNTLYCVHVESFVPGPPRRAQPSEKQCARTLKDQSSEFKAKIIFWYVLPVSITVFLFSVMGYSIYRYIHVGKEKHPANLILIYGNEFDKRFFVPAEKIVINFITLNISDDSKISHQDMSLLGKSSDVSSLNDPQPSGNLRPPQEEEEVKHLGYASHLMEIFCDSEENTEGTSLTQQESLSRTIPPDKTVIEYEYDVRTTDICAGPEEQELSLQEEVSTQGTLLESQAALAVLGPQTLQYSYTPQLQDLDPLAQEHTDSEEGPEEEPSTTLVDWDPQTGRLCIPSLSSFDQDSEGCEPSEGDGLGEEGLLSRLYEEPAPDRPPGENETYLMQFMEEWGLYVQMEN
T6 sequence (looked up) 2: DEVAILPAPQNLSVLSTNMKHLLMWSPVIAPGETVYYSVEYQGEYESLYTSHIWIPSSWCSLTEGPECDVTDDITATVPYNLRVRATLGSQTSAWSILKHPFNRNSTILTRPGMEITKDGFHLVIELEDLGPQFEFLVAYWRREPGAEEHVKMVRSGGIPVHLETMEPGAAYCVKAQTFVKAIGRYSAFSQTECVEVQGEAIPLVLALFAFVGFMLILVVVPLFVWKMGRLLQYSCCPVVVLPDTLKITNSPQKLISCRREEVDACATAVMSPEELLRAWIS

B1: antibody 26B9 (soluble) (antibody, human IgG1, kappa, V domains shown)
VH: QILLQESGPGLVKPTETLSLTCSVSGDSISDSSHYWAWIRQPPGKGPEWIGSVYFSSMTHYNPSLKSRVSISVDKPKNQFSLKVTSVTVADTATYYCARQALARVGAMNWFDPWGQGSLVTVSS
VL: DIIMTQSPDSLPVSLGEGVTINCKSSQSVFFTSSNKSCLAWYQQKPGKSPKLLIYWASTRQSGVPDRFRGSGSGTDFSLTITSLQAEDVAVYFCQQCQTSPPTFGGGTRLEIKR
notes: IgG1, kappa; also called soluble 26B9
B2: antibody 31B4 (antibody, human IgG1, kappa, V domains shown)
VH: B1 VH with L3Q, K13R, D31Q, K66T, V73I, P76A, K77M, Q79K
VL: DIIMTQSPESLPVSLGEGVTINCKSSQSVFFTSSNRSCLAWYQQKPGQSPKLLIYWASTRQSGVPDRFTGSGSGTDFSLTIAGLQVEDVAVYFCQQCHASPPTFGGGTRLELRR
notes: IgG1, kappa; clonally related to 26B9
B3: antibody 7D1 (antibody, human IgG1, lambda, V domains shown)
VH: EVQLVASGGDFIQPGRSLRLSCAASGFKFDDYAMFWVRQVPGRGLEWVSGISWSSDKMAYVDSVKGRFTISRDNAKNTLYLQMNNLRPDDTAFYYCAKGGFSSVWNYFDFWGQGTLVTVSS
VL: QSVLTQPPSASGTPGQTVIISCSGTTSNIGSNTVSWYRQLPGAAPKLLIFTYNQRPSGVPDRFSGSKSGTSASLAISGLQSDDEADYYCAVWDDALGGWVFGGGTKLTVLG
notes: IgG1, lambda; also called MAb 7D1
B4: antibody 6E11 (antibody, IgG1, V domains shown)
VH: QVQLVQSGAEVKKPGSSVKVSCKASGGTFRNYAINWVRQAPRQGLEWMGSLVPMFTSPTYAQKFRGRVTISADESTATSSMELTSLTSEDTAVYFCSADGYKGGLFYGMNVWGQGTTVTVSS
VL: DIVLTQSPESLAVSLGERATINCKSSQSVLYSSNSKNYLAWFQQKPGQPPKLLIYWASTRESGVPDRFSGSGSGTDFTLTITSLQAEDVAVYYCHQYHTLPRTFGHGTKVEIKR
notes: IgG1; also called MAb 6E11
B5: antibody 2A11 (antibody, IgG1, V domains shown)
VH: QVHLVQSGAEVKKPGSSVKVSCKASGGTFNNFPMSWVRQAPGRGLEWMAGIIPVFGSANYAQQFHGRVTISADISTSTVSMELNDLKSEDTGVYYCAISGDEDNWIMNFWGQGTLVTVSS
VL: QSLLTQPPSVSGAPGQRVTISCTGSSSNIGAGYDVHWYQQVPGTAPKLLIYGNRNRPSGVPDRFSGSKSGTSASLAITGLQAEDEADYYCQSYDSSLSGHAVFGGGTKVTVLR
notes: IgG1, lambda; also called MAb 2A11
B6: antibody 20A10 (antibody, human IgG4, kappa, V domains shown)
VH: QVQLVQSGAEVKKPGSSVKVSCKTSGGTFSTSTLSWVRQAPGQGLEWLGGMIPILSRTTYAQKFQGRLTITADEPTSTSYMELSSLKSEDTAVYYCATEGEVSAAHNYYYGMDVWGQGTTVTVSS
VL: DIVLTQSPLYLPVTPGEPASISCRSSQSLLHGNGHNYLDWYLQKPGQSPQLLIYLGSNRASGVPDRFSGSGSGTDFTLKISRVEAEDVGVYYCMQTLHTVFTFGPGTRVDIKR
notes: Recombinant human-derived antibody; also called MAb 20A10; 20A0
B7: recombinant mouse IL-20 (ligand, UniProt Q9JKV9 25-176, looked up)
chain: LKTLHLGSCVITANLQAIQKEFSEIRDSVQAEDTNIDIRILRTTESLKDIKSLDRCCFLRHLVRFYLDRVFKVYQTPDHHTLRKISSLANSFLIIKKDLSVCHSHMACHCGEEAMEKYNQILSHFIELELQAAVVKALGELGILLRWMEEML
notes: also called rmIL-20; murine IL-20
B8: recombinant human IL-20 (ligand, UniProt Q9NYY1 25-176, looked up)
chain: T1 sequence (looked up)
notes: also called rhIL-20; hIL-20

Experiments:
[1] = molecular target: T7, g1 IFNW (fusion protein of human IFNW with Gaussia luciferase) (human, UniProt P05000 22-195); assay: LCBA cross-competition, g1 IFNW preincubated with soluble antibody (FIG. 18)
T7 construct: also called IFNW-Gaussia luciferase; human IFNW-Gaussia luciferase fusion protein; not shown: Gaussia luciferase
T7 sequence (P05000 22-195): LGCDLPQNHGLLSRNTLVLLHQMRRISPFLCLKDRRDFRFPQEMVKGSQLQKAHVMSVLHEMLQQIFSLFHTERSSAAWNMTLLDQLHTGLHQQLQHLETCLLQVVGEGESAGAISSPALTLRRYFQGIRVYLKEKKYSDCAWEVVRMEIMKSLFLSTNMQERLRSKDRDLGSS

[2] = molecular target: T1, g1 IL-20 (fusion protein of human IL-20 …); assay: GLuc-sandwich ELISA
[3] = molecular target: T1, g1 IL-20 (fusion protein of human IL-20 …); assay: GLuc-sandwich ELISA, fusion protein captured by anti-GLuc antibody, serial dilution of MAB
[4] = molecular target: T2, g2 IL-20 (fusion protein of human IL-20 …); assay: as above
recombinant mouse IL-20 [5] = molecular target: B7; assay: competition GLuc-sandwich ELISA: soluble mouse IL-20 titrated against antibody 1 µg/ml on captured g2 IL-20
recombinant human IL-20 = molecular target: B8; assay: cell-based or functional assay
recombinant mouse IL-20 [6] = molecular target: B7; assay: cell-based or functional assay
[7] = molecular target: T3, peptide 20 of human IL-20, …; assay: 18mer peptide microarray of human IL-20, Cy5 anti-human IgG detection
[8] = molecular target: T4, corresponding 18mer peptide derived …; assay: 18mer peptide microarray of murine IL-20
[9] = molecular target: T1, g1 IL-20 (fusion protein of human IL-20 …); assay: chemiluminescent cell-binding assay (FIG. 8D): inhibition of g1 IL-20 binding to HEK 293T MSR cells expressing IL-20 receptor; receptor type for this value not stated
[10] = molecular target: T5, peptide 19 of human IL-20, …; assay: 18mer peptide microarray of human IL-20
[11] = molecular target: T6, Type I IL-20 receptor (IL-20RA/IL-20RB) …; assay: LCBA, competition with g1 IL-20 (FIG. 7E)
[12] = molecular target: T6, Type I IL-20 receptor (IL-20RA/IL-20RB) …; assay: LCBA, competition with g1 IL-20 on cells expressing Type I IL-20 receptor

Binder: B1
binding result [1]: binds

Binder: B2
binding result [1]: binds

Binder: B3
EC50 [2]: > 5 µg/mL
EC50 [3]: 5.87 µg/mL
EC50 [4]: 0.0271 µg/mL

Binder: B4
binding result (recombinant mouse IL-20 [5]): no binding (tested: 10 µg/ml to 4.6 ng/ml)
EC50 [3]: 0.128 µg/mL
EC50 [4]: 0.347 µg/mL

Binder: B5
EC50 [3]: 0.0098 µg/mL
EC50 [4]: 0.0065 µg/mL

Binder: B6
IC 50 in the KZ136-NLuc reporter assay (recombinant human IL-20): 0.33 µg/mL
IC 50 in the pSTAT3 Western blot assay (25 ng/ml rmIL-20, Type I IL-20 receptor) (recombinant mouse IL-20 [6]): 1870 ng/ml
binding result [7]: binds
binding result [8]: no binding
EC50 [3]: 0.0186 µg/mL
EC50 [4]: 0.021 µg/mL
IC50 [9]: 0.00403 µg/mL
binding result [10]: no binding

Binder: B7
binding result [11]: binds

Binder: B8
binding result [12]: binds
